From the supplement of paper PMC10567573

B1: PPEF2 (parent)
chain: FIPSSHNDRDFLTRIFTEDRFAQD
B2: RHOBTB2 (parent)
chain: HHHHGRDFLLRAASFDVCESVDEA

Variants of: B1
Experiment: protein stability index of a GFP-peptide fusion (GPS, HEK-293T) (PSI 1-6); higher = more stable
Details: c terminus: a fixed tail appended
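Further: lentivirally expressed fusions sorted by FACS into six bins by GFP to DsRed ratio, PSI derived from sequencing read proportions per bin multiplied by bin number.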

Compared with FIPSEHNDRDFLTRIFTEDRFAQD [S5E], FIHSSHNDRDFLTRIFTEDRFAQD [P3H] is lower in protein stability index: 2.4 for the first, 2.35 for the second.

Going from FIGSSHNDRDFLTRIFTEDRFAQD [P3G] to FINSSHNDRDFLTRIFTEDRFAQD [P3N], the protein stability index rises from 2.1 to 2.25.

First: FIVSSHNDRDFLTRIFTEDRFAQD [P3V]
Second: FIRSSHNDRDFLTRIFTEDRFAQD [P3R]
The protein stability index of the first is higher: 1.97 for the first, 1.72 for the second.

Compared with FISSSHNDRDFLTRIFTEDRFAQD [P3S], FILSSHNDRDFLTRIFTEDRFAQD [P3L] is higher in protein stability index: 1.91 for the first, 1.92 for the second.

First: FIESSHNDRDFLTRIFTEDRFAQD [P3E]
Second: FITSSHNDRDFLTRIFTEDRFAQD [P3T]
The protein stability index of the first is higher: 2.82 for the first, 1.99 for the second.

Going from FIASSHNDRDFLTRIFTEDRFAQD [P3A] to FIQSSHNDRDFLTRIFTEDRFAQD [P3Q], the protein stability index falls from 2.23 to 1.92.

Compared with FIMSSHNDRDFLTRIFTEDRFAQD [P3M], FIKSSHNDRDFLTRIFTEDRFAQD [P3K] is lower in protein stability index: 1.34 for the first, 1.25 for the second.

Compared with FIWSSHNDRDFLTRIFTEDRFAQD [P3W], FICSSHNDRDFLTRIFTEDRFAQD [P3C] is lower in protein stability index: 2.3 for the first, 1.3 for the second.

Going from FIFSSHNDRDFLTRIFTEDRFAQD [P3F] to FIISSHNDRDFLTRIFTEDRFAQD [P3I], the protein stability index rises from 1.79 to 2.19.

Going from FIYSSHNDRDFLTRIFTEDRFAQD [P3Y] to FIDSSHNDRDFLTRIFTEDRFAQD [P3D], the protein stability index rises from 1.84 to 2.75.

Variants of: B2
Experiment: as above
Details: c terminus: a fixed tail appended

Going from HHVHGRDFLLRAASFDVCESVDEA [H3V] to HHWHGRDFLLRAASFDVCESVDEA [H3W], the protein stability index falls from 3.65 to 2.43.

First: HHPHGRDFLLRAASFDVCESVDEA [H3P]
Second: HGHHGRDFLLRAASFDVCESVDEA [H2G]
The protein stability index of the first is lower: 3.56 for the first, 3.72 for the second.

First: HFHHGRDFLLRAASFDVCESVDEA [H2F]
Second: HRHHGRDFLLRAASFDVCESVDEA [H2R]
The protein stability index of the first is lower: 3.69 for the first, 3.9 for the second.

Compared with HVHHGRDFLLRAASFDVCESVDEA [H2V], HHHHGRDFLLRAASFDVIESVDEA [C18I] is higher in protein stability index: 3.46 for the first, 3.57 for the second.

First: HHHHGRDFLLRAASFDVFESVDEA [C18F]
Second: HHHHGRDFLLRAASFDVNESVDEA [C18N]
The protein stability index of the first is lower: 3.54 for the first, 4.21 for the second.

First: HHHHGRDFLLRAASFDVQESVDEA [C18Q]
Second: HHHHGRDFLLRAASFDVYESVDEA [C18Y]
The protein stability index of the first is higher: 4.03 for the first, 2.82 for the second.

First: HHHHGRDFLLRARSFDVCESVDEA [A13R]
Second: HHHHGRDFLLRAYSFDVCESVDEA [A13Y]
The protein stability index of the first is higher: 3.73 for the first, 2.87 for the second.

First: HHHHGRCFLLRAASFDVCESVDEA [D7C]
Second: HHHHGRRFLLRAASFDVCESVDEA [D7R]
The protein stability index of the first is lower: 1.92 for the first, 3.16 for the second.

Compared with HHHHGRDFGLRAASFDVCESVDEA [L9G], HHHHGRDFALRAASFDVCESVDEA [L9A] is higher in protein stability index: 4.6 for the first, 4.98 for the second.

Going from HHHHGRDFILRAASFDVCESVDEA [L9I] to HHHHGRDFFLRAASFDVCESVDEA [L9F], the protein stability index falls from 4.06 to 3.2.

Going from HHHHGRDFKLRAASFDVCESVDEA [L9K] to HHHHGRDFVLRAASFDVCESVDEA [L9V], the protein stability index falls from 4.35 to 4.33.

Compared with HHHHGRDFLDRAASFDVCESVDEA [L10D], HHHHGRDFLYRAASFDVCESVDEA [L10Y] is lower in protein stability index: 5.17 for the first, 3.9 for the second.

Going from HHHDGRDFLLRAASFDVCESVDEA [H4D] to HHHRGRDFLLRAASFDVCESVDEA [H4R], the protein stability index falls from 4.12 to 3.62.

Compared with HHHHGRDFLLRAASFDVCESDDEA [V21D], HHHHGRDFLLRAASFDVCESWDEA [V21W] is lower in protein stability index: 4.84 for the first, 3.61 for the second.

Compared with HHHHGRDFLLRAASFDICESVDEA [V17I], HHHHGRDFLLRAASFDRCESVDEA [V17R] is higher in protein stability index: 3.37 for the first, 3.52 for the second.

First: HHHHGRDFLLRAASFDPCESVDEA [V17P]
Second: HHHHGRDFLLRAASFDWCESVDEA [V17W]
The protein stability index of the first is higher: 4.7 for the first, 3 for the second.

Going from HHHHGRDFLLRAASFDACESVDEA [V17A] to HHHHGRDFLLRSASFDVCESVDEA [A12S], the protein stability index falls from 4.04 to 3.29.

Going from HHHHGRDFLLRIASFDVCESVDEA [A12I] to HHHHGRDFLLRWASFDVCESVDEA [A12W], the protein stability index rises from 2.54 to 2.67.

First: HHHHGRDFLLRVASFDVCESVDEA [A12V]
Second: HHHHGRDFLLRAASFDVCESVEEA [D22E]
The protein stability index of the first is lower: 3.03 for the first, 3.77 for the second.

Going from HHHHGRDFLLRAASFDVCESVCEA [D22C] to HHHHGRDFLLRAASFDVCESVREA [D22R], the protein stability index rises from 2.56 to 3.15.

Compared with HHHHGRDFLLRAASFDVCESVDQA [E23Q], HHHHGRDFLLRAASFDVCESVDNA [E23N] is lower in protein stability index: 3.66 for the first, 3.26 for the second.

First: HHHHGRDFLLRAASFDVCESVDDA [E23D]
Second: HHHHGRDFLLRAASFDVCESVDPA [E23P]
The protein stability index of the first is lower: 3.39 for the first, 3.65 for the second.

First: HHHHGRDFLLRAASFDVCESVDVA [E23V]
Second: HHHHGRDFLLRAASFVVCESVDEA [D16V]
The protein stability index of the first is higher: 2.45 for the first, 2.33 for the second.

Compared with HHHHGRDFLLRAASFAVCESVDEA [D16A], HHHHGRDFLLRAASFSVCESVDEA [D16S] is lower in protein stability index: 3.37 for the first, 3.17 for the second.

Compared with HHHHGRDFLLRAASFIVCESVDEA [D16I], HHHHGRDFLLRAASFTVCESVDEA [D16T] is higher in protein stability index: 2.14 for the first, 3.36 for the second.

Going from HHHHGRDFLLRAASFLVCESVDEA [D16L] to HHHHGRDFLLRAASFDVCSSVDEA [E19S], the protein stability index rises from 2.11 to 2.71.

First: HHHHGRDFLLRAASFDVCGSVDEA [E19G]
Second: HHHHGRDFLLRAASFDVCMSVDEA [E19M]
The protein stability index of the first is higher: 3.07 for the first, 2.44 for the second.

Compared with HHHHGRDFLLRAAFFDVCESVDEA [S14F], HHHHGRDFLLRAAGFDVCESVDEA [S14G] is higher in protein stability index: 3.03 for the first, 3.15 for the second.

First: HHHHGRDFLLRAAIFDVCESVDEA [S14I]
Second: HHHHGRDFLLRAAAFDVCESVDEA [S14A]
The protein stability index of the first is lower: 2.73 for the first, 3.55 for the second.

Going from HHHHGRDFLLRAASIDVCESVDEA [F15I] to HHHHGRDFLLRAASQDVCESVDEA [F15Q], the protein stability index rises from 3.94 to 4.1.

Going from HHHHGRDFLLRAASSDVCESVDEA [F15S] to HHHHGRDFLLRAASFDVCESVDEQ [A24Q], the protein stability index falls from 4.76 to 3.86.

Going from HHHHGRDFLLRAASFDVCESVDER [A24R] to HHHHGRDVLLRAASFDVCESVDEA [F8V], the protein stability index rises from 3.75 to 4.66.

HHHHGRDCLLRAASFDVCESVDEA [F8C] and HHHHGRDGLLRAASFDVCESVDEA [F8G] are the same in protein stability index: 4.74 for the first, 4.74 for the second.

Going from HHHHGRDLLLRAASFDVCESVDEA [F8L] to HHHHGGDFLLRAASFDVCESVDEA [R6G], the protein stability index rises from 4.45 to 4.7.

Compared with HHHHGHDFLLRAASFDVCESVDEA [R6H], HHHHGRDFLLPAASFDVCESVDEA [R11P] is lower in protein stability index: 4.41 for the first, 4.26 for the second.

Going from HHHHGRDFLLGAASFDVCESVDEA [R11G] to HHHHWRDFLLRAASFDVCESVDEA [G5W], the protein stability index falls from 4.43 to 2.21.

Going from HHHHCRDFLLRAASFDVCESVDEA [G5C] to HHHHFRDFLLRAASFDVCESVDEA [G5F], the protein stability index falls from 2.63 to 1.6.
